Experimental findings from patent publication US20240295565A1 (Genentech, published 2024) are described below.

In this experiment the target is human UNC80 (uncoordinated 80; protein unc-80 homolog) (human) (UniProt Q8N2C7). Description: cryo-EM structure, crossover interface.
Sequence of human UNC80 (uncoordinated 80; protein unc-80 homolog) (human) (Q8N2C7 whole entry): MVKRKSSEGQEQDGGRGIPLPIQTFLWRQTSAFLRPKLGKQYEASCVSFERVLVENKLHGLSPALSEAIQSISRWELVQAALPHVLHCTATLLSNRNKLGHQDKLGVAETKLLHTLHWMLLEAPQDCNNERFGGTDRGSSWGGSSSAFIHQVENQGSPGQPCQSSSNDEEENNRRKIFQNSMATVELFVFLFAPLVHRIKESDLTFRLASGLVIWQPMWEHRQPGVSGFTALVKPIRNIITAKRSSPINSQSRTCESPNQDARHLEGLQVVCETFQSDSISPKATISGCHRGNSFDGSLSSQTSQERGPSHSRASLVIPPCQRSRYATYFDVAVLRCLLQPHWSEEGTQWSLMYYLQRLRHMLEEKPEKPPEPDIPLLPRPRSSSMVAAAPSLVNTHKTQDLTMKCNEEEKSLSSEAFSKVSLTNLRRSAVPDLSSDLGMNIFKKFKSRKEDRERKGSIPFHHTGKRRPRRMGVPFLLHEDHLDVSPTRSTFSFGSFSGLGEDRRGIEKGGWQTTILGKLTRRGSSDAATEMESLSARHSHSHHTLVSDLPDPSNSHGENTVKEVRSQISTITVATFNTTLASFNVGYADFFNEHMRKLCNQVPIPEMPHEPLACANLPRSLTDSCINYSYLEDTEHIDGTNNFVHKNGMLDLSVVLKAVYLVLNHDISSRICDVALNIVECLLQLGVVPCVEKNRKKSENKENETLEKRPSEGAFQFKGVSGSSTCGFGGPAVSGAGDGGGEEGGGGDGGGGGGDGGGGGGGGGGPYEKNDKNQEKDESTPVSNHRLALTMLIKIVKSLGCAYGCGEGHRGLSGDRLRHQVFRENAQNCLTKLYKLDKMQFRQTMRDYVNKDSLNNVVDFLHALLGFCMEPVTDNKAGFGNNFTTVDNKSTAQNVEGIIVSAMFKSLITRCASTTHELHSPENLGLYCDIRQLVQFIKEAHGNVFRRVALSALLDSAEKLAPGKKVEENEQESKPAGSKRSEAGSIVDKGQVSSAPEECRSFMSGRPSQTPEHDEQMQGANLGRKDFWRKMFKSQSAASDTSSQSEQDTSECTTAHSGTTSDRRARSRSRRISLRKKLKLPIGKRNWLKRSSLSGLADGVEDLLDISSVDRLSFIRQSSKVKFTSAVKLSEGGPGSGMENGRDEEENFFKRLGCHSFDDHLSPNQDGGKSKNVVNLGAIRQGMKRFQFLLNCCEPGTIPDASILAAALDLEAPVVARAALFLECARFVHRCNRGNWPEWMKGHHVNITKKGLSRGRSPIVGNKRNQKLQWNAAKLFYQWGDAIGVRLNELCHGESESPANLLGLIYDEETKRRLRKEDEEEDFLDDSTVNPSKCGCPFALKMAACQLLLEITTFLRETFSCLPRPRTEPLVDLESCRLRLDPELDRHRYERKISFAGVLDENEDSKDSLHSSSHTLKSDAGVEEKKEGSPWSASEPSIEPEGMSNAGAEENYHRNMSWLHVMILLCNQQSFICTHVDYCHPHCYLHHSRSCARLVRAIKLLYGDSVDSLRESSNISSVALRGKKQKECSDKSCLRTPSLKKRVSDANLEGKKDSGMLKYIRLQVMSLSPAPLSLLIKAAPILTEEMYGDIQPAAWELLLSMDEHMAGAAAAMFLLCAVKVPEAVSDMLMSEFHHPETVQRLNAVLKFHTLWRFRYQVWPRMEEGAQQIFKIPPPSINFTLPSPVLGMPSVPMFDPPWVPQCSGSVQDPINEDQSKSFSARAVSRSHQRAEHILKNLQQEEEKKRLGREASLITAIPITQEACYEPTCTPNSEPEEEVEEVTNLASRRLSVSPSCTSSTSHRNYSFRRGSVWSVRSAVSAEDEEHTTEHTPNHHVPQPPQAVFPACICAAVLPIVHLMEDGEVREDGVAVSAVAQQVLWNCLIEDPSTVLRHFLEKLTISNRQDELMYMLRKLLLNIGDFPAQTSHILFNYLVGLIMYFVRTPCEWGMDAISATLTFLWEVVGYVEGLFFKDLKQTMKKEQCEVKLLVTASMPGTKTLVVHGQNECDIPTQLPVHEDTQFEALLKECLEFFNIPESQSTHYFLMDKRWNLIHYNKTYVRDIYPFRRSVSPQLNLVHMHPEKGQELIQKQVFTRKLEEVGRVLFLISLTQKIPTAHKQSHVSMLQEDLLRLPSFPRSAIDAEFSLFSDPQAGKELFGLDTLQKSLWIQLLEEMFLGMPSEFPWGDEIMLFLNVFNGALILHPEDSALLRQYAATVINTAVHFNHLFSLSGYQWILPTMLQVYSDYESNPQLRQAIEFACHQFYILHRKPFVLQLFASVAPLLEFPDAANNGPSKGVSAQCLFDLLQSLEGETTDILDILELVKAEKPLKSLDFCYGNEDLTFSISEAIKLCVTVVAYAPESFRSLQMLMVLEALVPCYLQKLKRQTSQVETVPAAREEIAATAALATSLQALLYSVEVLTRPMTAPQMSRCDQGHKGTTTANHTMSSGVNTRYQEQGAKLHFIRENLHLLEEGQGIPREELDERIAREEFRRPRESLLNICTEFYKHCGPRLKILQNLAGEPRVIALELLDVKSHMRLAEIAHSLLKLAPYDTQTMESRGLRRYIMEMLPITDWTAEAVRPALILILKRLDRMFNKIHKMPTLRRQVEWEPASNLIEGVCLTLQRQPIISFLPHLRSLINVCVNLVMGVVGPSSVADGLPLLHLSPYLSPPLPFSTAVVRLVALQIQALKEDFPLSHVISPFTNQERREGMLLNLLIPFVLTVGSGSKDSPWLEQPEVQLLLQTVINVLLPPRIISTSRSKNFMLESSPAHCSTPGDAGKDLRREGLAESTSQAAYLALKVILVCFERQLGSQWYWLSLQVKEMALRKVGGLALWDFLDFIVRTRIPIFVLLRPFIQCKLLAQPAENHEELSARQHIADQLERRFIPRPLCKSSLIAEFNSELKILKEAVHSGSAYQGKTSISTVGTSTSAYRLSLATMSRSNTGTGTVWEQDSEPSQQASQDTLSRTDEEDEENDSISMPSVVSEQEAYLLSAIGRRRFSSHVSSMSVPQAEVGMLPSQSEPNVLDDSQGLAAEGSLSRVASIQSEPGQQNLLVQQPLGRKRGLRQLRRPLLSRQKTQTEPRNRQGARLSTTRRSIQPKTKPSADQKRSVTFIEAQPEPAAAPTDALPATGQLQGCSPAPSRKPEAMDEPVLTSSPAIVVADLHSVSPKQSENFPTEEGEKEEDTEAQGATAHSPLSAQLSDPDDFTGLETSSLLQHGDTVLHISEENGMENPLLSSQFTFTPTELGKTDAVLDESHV

“human UNC79 (uncoordinated 79; protein unc-79 homolog), Q9P2D8 1-2635” displayed a buried solvent accessible surface area (crossover interface) of 3000 A2.
